{
  "source": "paper PMC6264893",
  "about": "(Nature, 2018)",
  "binders": {"B1": {"name": "prothymosin α (unlabeled, wildtype) (natural protein, human, UniProt P06454 1-111, looked up)", "chain": "MSDAAVDTSSEITTKDLKEKKEVVEEAENGRDAPANGNAENEENGEQEADNEVDEEEEEGGEEEEEEEEGDGEEEDGDEDEEAESATGKRAAEDDEDDDVDTKKQKTDEDD"}},
  "target": "His6-tagged 13C,15N-H1 (human, UniProt P07305 1-194)",
  "sequence (P07305 whole entry)": "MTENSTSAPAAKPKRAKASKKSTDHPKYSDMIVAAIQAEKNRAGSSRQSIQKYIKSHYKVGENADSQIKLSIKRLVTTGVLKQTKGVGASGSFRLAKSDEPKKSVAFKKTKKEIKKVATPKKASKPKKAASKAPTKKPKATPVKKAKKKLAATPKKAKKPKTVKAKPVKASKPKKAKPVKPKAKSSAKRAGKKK",
  "test": "NMR titration",
  "data": [
    {"binder": "B1", "values": [
      {"measurement": "stoichiometry N", "result": 1}
    ]}
  ]
}
